Measured values as given in IntAct's records for PubMed 31515488.

B1: Glutathione S-transferase Mu 3 (Homo sapiens), P21266 (parent)
chain: MSCESSMVLGYWDIRGLAHAIRLLLEFTDTSYEEKRYTCGEAPDYDRSQWLDVKFKLDLDFPNLPYLLDGKNKITQSNAILRYIARKHNMCGETEEEKIRVDIIENQVMDFRTQLIRLCYSSDHEKLKPQYLEELPGQLKQFSMFLGKFSWFAGEKLTFVDFLTYDILDQNRIFDPKCLDEFPNLKAFMCRFEALEKIAAYLQSDQFCKMPINNKMAQWGNKPVC
partner: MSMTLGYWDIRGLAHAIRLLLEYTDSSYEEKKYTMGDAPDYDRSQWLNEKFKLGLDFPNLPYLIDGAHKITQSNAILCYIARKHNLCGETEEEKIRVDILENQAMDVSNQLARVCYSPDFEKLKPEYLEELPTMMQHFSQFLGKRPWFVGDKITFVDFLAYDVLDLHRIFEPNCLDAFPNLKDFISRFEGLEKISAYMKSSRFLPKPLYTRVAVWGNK
B2: Zinc finger protein with KRAB and SCAN domains 4 (Homo sapiens), Q969J2 (parent)
chain: MAREPRKNAALDAQSAEDQTGLLTVKVEKEEASALTAEVRAPCSPARGPERSRQRFRGFRYPEAAGPREALSRLRELCGQWLQPEMHSKEQILELLVLEQFLTILPGNLQSWVREQHPESGEEVVVLLEYLERQLDEPAPQVPVGDQGQELLCCKMALLTQTQGSQSSQCQPMKALFKHESLGSQPLHDRVLQVPGLAQGGCCREDAMVASRLTPGSQGLLKMEDVALTLTPGWTQLDSSQVNLYRDEKQENHSSLVSLGGEIQTKSRDLPPVKKLPEKEHGKICHLREDIAQIPTHAEAGEQEGRLQRKQKNAIGSRRHYCHECGKSFAQSSGLTKHRRIHTGEKPYECEDCGKTFIGSSALVIHQRVHTGEKPYECEECGKVFSHSSNLIKHQRTHTGEKPYECDDCGKTFSQSCSLLEHHKIHTGEKPYQCNMCGKAFRRNSHLLRHQRIHGDKNVQNPEHGESWESQGRTESQWENTEAPVSYKCNECERSFTRNRSLIEHQKIHTGEKPYQCDTCGKGFTRTSYLVQHQRSHVGKKTLSQ
B3: PIH1 domain-containing protein 2 (Homo sapiens), Q8WWB5 (parent)
chain: METSSKGLLTQVTQFWNLLDDLAQSDPEGYEKFIQQQLKEGKQLCAAPEPQLCLQTRILKPKEKILFINLCQWTRIPAPQSTTHPVPLTVGKPEDTTEISDAYTVIDVAYNPDVLHAAEKDQVKKNQLIQMAMKCIEEKFQFTLSHSYHITKFRIKGSIQRMKQNLMGIQTDSIDLREKMRRELTLGQIRSSTMSNPDHFPQLLLPKDQVSGKAVCLIEEISSTEIQVEMKMPAYELKIVHDHSEKPLKIELKVELPGINSVSLCDLSVSEDDLLIEVSEKYRLHLNLPKLIDTEMTTAKFIKEKSTLIITMPLV
partner: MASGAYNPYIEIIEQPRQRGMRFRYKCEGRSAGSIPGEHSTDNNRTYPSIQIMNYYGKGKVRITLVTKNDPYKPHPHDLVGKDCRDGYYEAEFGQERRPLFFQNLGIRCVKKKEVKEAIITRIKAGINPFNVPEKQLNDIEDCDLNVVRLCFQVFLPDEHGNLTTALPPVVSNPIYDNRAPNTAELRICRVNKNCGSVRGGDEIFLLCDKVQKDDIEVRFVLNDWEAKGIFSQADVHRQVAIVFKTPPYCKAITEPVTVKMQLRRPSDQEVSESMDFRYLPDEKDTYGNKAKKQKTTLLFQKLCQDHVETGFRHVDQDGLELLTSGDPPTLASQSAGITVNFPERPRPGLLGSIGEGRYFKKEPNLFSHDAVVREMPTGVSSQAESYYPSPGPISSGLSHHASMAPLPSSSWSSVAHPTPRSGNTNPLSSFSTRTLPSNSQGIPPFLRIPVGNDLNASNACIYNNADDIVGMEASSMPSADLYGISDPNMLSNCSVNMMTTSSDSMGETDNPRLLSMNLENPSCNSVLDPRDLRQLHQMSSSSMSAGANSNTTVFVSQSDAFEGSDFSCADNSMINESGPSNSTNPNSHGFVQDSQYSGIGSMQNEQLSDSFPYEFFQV

Variants of: B1
Conditions: with gstm4_human GSTM4, Q03013

effect of a mutation on the interaction	Variant
disrupting interaction strength	MSCESSMVLGYWDIRGLAHAIRLLLEFTDTSYEEKRYTCGEAPDYDRSQWLDVKFKLDLDFPNLPYLLDGKNKITQSNAILRYIAHKHNMCGETEEEKIRVDIIENQVMDFRTQLIRLCYSSDHEKLKPQYLEELPGQLKQFSMFLGKFSWFAGEKLTFVDFLTYDILDQNRIFDPKCLDEFPNLKAFMCRFEALEKIAAYLQSDQFCKMPINNKMAQWGNKPVC [R86H]
disrupting interaction strength	MSCESSMVLGYWDIRGLAHAIRPLLEFTDTSYEEKRYTCGEAPDYDRSQWLDVKFKLDLDFPNLPYLLDGKNKITQSNAILRYIARKHNMCGETEEEKIRVDIIENQVMDFRTQLIRLCYSSDHEKLKPQYLEELPGQLKQFSMFLGKFSWFAGEKLTFVDFLTYDILDQNRIFDPKCLDEFPNLKAFMCRFEALEKIAAYLQSDQFCKMPINNKMAQWGNKPVC [L23P]

Variants of: B2
Conditions: with zsc32_human ZSCAN32, Q9NX65
zsc32_human ZSCAN32, Q9NX65, sequence (Q9NX65 whole entry): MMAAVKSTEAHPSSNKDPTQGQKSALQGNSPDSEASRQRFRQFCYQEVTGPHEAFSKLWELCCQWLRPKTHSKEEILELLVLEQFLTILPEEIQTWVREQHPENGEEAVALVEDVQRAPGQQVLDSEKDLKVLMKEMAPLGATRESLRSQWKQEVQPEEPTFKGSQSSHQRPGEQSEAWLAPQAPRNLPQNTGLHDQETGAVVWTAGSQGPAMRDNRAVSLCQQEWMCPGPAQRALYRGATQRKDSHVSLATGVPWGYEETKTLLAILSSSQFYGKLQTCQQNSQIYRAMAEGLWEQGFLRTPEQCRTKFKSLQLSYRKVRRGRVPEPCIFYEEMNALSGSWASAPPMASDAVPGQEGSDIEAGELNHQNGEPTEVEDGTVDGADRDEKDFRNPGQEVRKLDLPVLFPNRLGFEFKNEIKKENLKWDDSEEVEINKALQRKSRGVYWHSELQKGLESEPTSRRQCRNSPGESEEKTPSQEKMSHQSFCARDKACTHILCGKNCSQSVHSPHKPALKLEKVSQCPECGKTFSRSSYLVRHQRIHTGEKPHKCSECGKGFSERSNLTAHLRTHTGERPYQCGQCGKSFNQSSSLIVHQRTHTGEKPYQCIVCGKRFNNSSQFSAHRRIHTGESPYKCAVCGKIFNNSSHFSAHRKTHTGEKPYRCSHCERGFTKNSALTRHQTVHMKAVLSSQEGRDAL

effect of a mutation on the interaction	Variant
with no effect	MAREPRKNAALDAQSAEDQTGLLTVKVEKEEASALTAEVRAPCSPARGPERSRQRFRGFRYPEAAGPREALSRLRELCRQWLQPEMHSKEQILELLVLEQFLTILPGNLQSWVREQHPESGEEVVVLLEYLERQLDEPAPQVPVGDQGQELLCCKMALLTQTQGSQSSQCQPMKALFKHESLGSQPLHDRVLQVPGLAQGGCCREDAMVASRLTPGSQGLLKMEDVALTLTPGWTQLDSSQVNLYRDEKQENHSSLVSLGGEIQTKSRDLPPVKKLPEKEHGKICHLREDIAQIPTHAEAGEQEGRLQRKQKNAIGSRRHYCHECGKSFAQSSGLTKHRRIHTGEKPYECEDCGKTFIGSSALVIHQRVHTGEKPYECEECGKVFSHSSNLIKHQRTHTGEKPYECDDCGKTFSQSCSLLEHHKIHTGEKPYQCNMCGKAFRRNSHLLRHQRIHGDKNVQNPEHGESWESQGRTESQWENTEAPVSYKCNECERSFTRNRSLIEHQKIHTGEKPYQCDTCGKGFTRTSYLVQHQRSHVGKKTLSQ [G79R]

Variants of: B2
Conditions: with zksc7_human ZKSCAN7, Q9P0L1
zksc7_human ZKSCAN7, Q9P0L1, sequence (Q9P0L1 whole entry): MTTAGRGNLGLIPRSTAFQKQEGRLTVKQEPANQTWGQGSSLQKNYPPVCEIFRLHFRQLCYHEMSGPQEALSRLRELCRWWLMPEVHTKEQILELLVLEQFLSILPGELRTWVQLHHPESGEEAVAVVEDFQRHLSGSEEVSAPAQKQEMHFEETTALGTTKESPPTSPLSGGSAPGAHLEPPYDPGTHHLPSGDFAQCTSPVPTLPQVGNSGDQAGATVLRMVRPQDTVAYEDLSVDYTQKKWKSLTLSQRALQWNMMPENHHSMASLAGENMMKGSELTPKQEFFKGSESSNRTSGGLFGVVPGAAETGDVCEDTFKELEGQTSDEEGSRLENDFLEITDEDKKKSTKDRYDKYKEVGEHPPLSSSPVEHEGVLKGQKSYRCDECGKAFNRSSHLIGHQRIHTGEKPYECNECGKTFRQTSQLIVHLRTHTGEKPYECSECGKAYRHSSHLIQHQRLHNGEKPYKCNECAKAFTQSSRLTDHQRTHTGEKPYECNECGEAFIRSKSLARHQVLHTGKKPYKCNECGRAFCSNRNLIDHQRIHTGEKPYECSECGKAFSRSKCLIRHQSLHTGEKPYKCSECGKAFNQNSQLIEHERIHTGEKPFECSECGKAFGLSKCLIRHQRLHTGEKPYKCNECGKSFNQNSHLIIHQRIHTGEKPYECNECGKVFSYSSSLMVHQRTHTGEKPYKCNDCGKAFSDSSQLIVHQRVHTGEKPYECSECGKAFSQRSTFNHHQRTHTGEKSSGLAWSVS

effect of a mutation on the interaction	Variant
with no effect	MAREPRKNAALDAQSAEDQTGLLTVKVEKEEASALTAEVRAPCSPARGPERSRQRFRGFRYPEAAGPREALSRLRELCRQWLQPEMHSKEQILELLVLEQFLTILPGNLQSWVREQHPESGEEVVVLLEYLERQLDEPAPQVPVGDQGQELLCCKMALLTQTQGSQSSQCQPMKALFKHESLGSQPLHDRVLQVPGLAQGGCCREDAMVASRLTPGSQGLLKMEDVALTLTPGWTQLDSSQVNLYRDEKQENHSSLVSLGGEIQTKSRDLPPVKKLPEKEHGKICHLREDIAQIPTHAEAGEQEGRLQRKQKNAIGSRRHYCHECGKSFAQSSGLTKHRRIHTGEKPYECEDCGKTFIGSSALVIHQRVHTGEKPYECEECGKVFSHSSNLIKHQRTHTGEKPYECDDCGKTFSQSCSLLEHHKIHTGEKPYQCNMCGKAFRRNSHLLRHQRIHGDKNVQNPEHGESWESQGRTESQWENTEAPVSYKCNECERSFTRNRSLIEHQKIHTGEKPYQCDTCGKGFTRTSYLVQHQRSHVGKKTLSQ [G79R]

Variants of: B2
Conditions: with znf24_human ZNF24, P17028
znf24_human ZNF24, P17028, sequence (P17028 whole entry): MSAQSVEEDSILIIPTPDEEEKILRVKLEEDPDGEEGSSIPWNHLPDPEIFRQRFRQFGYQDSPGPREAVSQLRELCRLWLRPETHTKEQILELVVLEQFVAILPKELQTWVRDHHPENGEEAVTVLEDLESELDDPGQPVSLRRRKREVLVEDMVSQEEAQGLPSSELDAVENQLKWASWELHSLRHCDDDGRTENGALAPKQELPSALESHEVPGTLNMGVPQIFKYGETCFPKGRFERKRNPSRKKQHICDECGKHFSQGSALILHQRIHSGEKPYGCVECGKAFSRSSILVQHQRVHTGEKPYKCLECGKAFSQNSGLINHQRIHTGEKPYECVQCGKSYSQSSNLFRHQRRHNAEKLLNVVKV

effect of a mutation on the interaction	Variant
disrupting interaction strength	MAREPRKNAALDAQSAEDQTGLLTVKVEKEEASALTAEVRAPCSPARGPERSRQRFRGFRYPEAAGPREALSRLRELCRQWLQPEMHSKEQILELLVLEQFLTILPGNLQSWVREQHPESGEEVVVLLEYLERQLDEPAPQVPVGDQGQELLCCKMALLTQTQGSQSSQCQPMKALFKHESLGSQPLHDRVLQVPGLAQGGCCREDAMVASRLTPGSQGLLKMEDVALTLTPGWTQLDSSQVNLYRDEKQENHSSLVSLGGEIQTKSRDLPPVKKLPEKEHGKICHLREDIAQIPTHAEAGEQEGRLQRKQKNAIGSRRHYCHECGKSFAQSSGLTKHRRIHTGEKPYECEDCGKTFIGSSALVIHQRVHTGEKPYECEECGKVFSHSSNLIKHQRTHTGEKPYECDDCGKTFSQSCSLLEHHKIHTGEKPYQCNMCGKAFRRNSHLLRHQRIHGDKNVQNPEHGESWESQGRTESQWENTEAPVSYKCNECERSFTRNRSLIEHQKIHTGEKPYQCDTCGKGFTRTSYLVQHQRSHVGKKTLSQ [G79R]

Variants of: B2
Conditions: with zn496_human ZNF496, Q96IT1
zn496_human ZNF496, Q96IT1, sequence (Q96IT1 whole entry): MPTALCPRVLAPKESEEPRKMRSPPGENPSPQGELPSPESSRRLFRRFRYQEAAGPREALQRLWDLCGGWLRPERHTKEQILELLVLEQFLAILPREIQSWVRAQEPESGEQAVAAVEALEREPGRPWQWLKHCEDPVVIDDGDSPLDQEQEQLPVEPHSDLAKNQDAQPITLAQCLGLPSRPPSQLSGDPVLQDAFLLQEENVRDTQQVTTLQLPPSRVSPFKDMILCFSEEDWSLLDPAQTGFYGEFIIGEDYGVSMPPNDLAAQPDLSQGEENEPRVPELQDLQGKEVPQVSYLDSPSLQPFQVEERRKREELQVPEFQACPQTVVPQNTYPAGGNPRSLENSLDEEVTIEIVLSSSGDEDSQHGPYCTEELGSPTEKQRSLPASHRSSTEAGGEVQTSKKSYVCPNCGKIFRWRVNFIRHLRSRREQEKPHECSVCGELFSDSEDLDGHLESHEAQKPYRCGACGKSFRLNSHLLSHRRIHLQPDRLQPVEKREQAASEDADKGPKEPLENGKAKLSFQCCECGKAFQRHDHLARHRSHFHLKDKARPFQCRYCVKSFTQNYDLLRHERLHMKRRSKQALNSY

effect of a mutation on the interaction	Variant
with no effect	MAREPRKNAALDAQSAEDQTGLLTVKVEKEEASALTAEVRAPCSPARGPERSRQRFRGFRYPEAAGPREALSRLRELCRQWLQPEMHSKEQILELLVLEQFLTILPGNLQSWVREQHPESGEEVVVLLEYLERQLDEPAPQVPVGDQGQELLCCKMALLTQTQGSQSSQCQPMKALFKHESLGSQPLHDRVLQVPGLAQGGCCREDAMVASRLTPGSQGLLKMEDVALTLTPGWTQLDSSQVNLYRDEKQENHSSLVSLGGEIQTKSRDLPPVKKLPEKEHGKICHLREDIAQIPTHAEAGEQEGRLQRKQKNAIGSRRHYCHECGKSFAQSSGLTKHRRIHTGEKPYECEDCGKTFIGSSALVIHQRVHTGEKPYECEECGKVFSHSSNLIKHQRTHTGEKPYECDDCGKTFSQSCSLLEHHKIHTGEKPYQCNMCGKAFRRNSHLLRHQRIHGDKNVQNPEHGESWESQGRTESQWENTEAPVSYKCNECERSFTRNRSLIEHQKIHTGEKPYQCDTCGKGFTRTSYLVQHQRSHVGKKTLSQ [G79R]

Variants of: B3
Conditions: with rel_human REL

effect of a mutation on the interaction	Variant
with no effect	METSSKGLLTQVTQFWNLLDDLAQSDPEGYEKFIQQQLKEGKQLCAAPEPQLCLQTRILKPKEKILFINLCQWTRIPAPQSTTHPVPLTVGKPEDTTEISDDYTVIDVAYNPDVLHAAEKDQVKKNQLIQMAMKCIEEKFQFTLSHSYHITKFRIKGSIQRMKQNLMGIQTDSIDLREKMRRELTLGQIRSSTMSNPDHFPQLLLPKDQVSGKAVCLIEEISSTEIQVEMKMPAYELKIVHDHSEKPLKIELKVELPGINSVSLCDLSVSEDDLLIEVSEKYRLHLNLPKLIDTEMTTAKFIKEKSTLIITMPLV [A102D]
